These results are taken from the supplement of paper PMC12042874.

± gives the uncertainty stated by the source.

The data set in a line: amyloid nucleation score (Sup35N fusion, yeast selection) (log enrichment); library NNK1; higher = more nucleation; inactive = no reads after selection. An outline of the steps:
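For the nucleation score, DiMSum gave the log enrichment of output over input reads, centred on the mode score of non-aggregating sequences. Psi-negative yeast expressing Sup35N fused to peptides of 20 random codons were induced with 100 μM copper sulfate for 24 hours and grown 7 days at 30°C on medium lacking adenine and uracil. Input and output plasmid inserts were Illumina-sequenced, and sequences with under 100 input reads were excluded.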
In turn, GLRLNITNSRGRPRETWRGR had an amyloid nucleation score of 2.33 ± 0.24.

As to GLRVPPHDVLMSIARLDVSK, the amyloid nucleation score entry is “inactive”.

The substance GLSQWGTVRCHTAASIYLAT returned an amyloid nucleation score of 0.316 ± 0.58.

In turn, GLTCMHPWWLSHAEKRLVEL displayed an amyloid nucleation score of 1.05 ± 0.49.

GLYFGLQLTGVS returned an amyloid nucleation score of 0.04 ± 0.35.

For the substance GMAWSRSLRVGHSGIMGRAV, the amyloid nucleation score turned out to be 0.189 ± 0.22.

For GMFYVLVGENCCFYALVWTL, the amyloid nucleation score is -0.223 ± 0.23.

GMHLVKQVQGYRVRAEYSLF yielded an amyloid nucleation score of 0.98 ± 0.92.

Take GMMHFGCGFSFWWNNFRQWW: the amyloid nucleation score is 2.49 ± 0.19.

The substance GMSALYSGDVL had an amyloid nucleation score of -0.118 ± 0.57.

GMSIE: the amyloid nucleation score is -0.314 ± 0.8.

Take GMTLMVAEFGLIRLVNTLAI: the amyloid nucleation score turned out to be 0.785 ± 0.49.

Take GMVFF: the amyloid nucleation score is 0.643 ± 0.58.

On to GMWSTNANTPILVILRGVVM, for which the amyloid nucleation score stood at 0.71 ± 1.1.

For the substance GNALRMVWERTQGTLPEYRR, the amyloid nucleation score is 0.219 ± 0.59.

GNFMVW displayed an amyloid nucleation score of -0.403 ± 0.58.

Consider GNMSCPFVQRREVLLC, for which the amyloid nucleation score is -0.383 ± 1.4.

In turn, GNVGYLGVSRYLHLC registered an amyloid nucleation score of -0.073 ± 0.41.

Turning to GNVRYAPYVVGIKLIRANSC, the amyloid nucleation score is -0.381 ± 0.81.

GPFASVFCAYGRVGVM: the amyloid nucleation score came to 0.354 ± 0.68.

In turn, GPFHRWNL gave an amyloid nucleation score of -0.129 ± 1.6.

As for GPRAN, the amyloid nucleation score is -1.55 ± 2.7.

Turning to GPSLWLKTMVKGYAKTGLYR, the amyloid nucleation score is -0.219 ± 0.32.

GPSRRTLRGNFNHLVTYWCP yielded an amyloid nucleation score of 0.003 ± 0.46.

Take GPTRLDAEG: the amyloid nucleation score was -0.54 ± 0.87.

Consider GRARVSIRSWSRSWSVGRVL, for which the amyloid nucleation score was found to be 0.309 ± 0.63.

GRDSIRCLNTTEASKLYGGL displayed an amyloid nucleation score of 0.609 ± 0.64.

Turning to GREANILFLYLVLRTFFRMG, the amyloid nucleation score entry was “inactive”.

For the substance GRFRARIHCSPQARVTFVAS, the amyloid nucleation score is -0.113 ± 0.71.

With GRGSMLFW, the amyloid nucleation score is 0.942 ± 0.58.

As to GRGWYGSRYARVVHFVWGYA, the amyloid nucleation score is -0.487 ± 0.34.

In turn, GRLCPLRSKTSFNCY registered an amyloid nucleation score of -1.81 ± 1.3.

In turn, GRLISETNLAKSYSL gave an amyloid nucleation score of -0.187 ± 0.33.

In turn, GRMTILSVNSS yielded an amyloid nucleation score of 0.328 ± 0.46.

With GRRYELPGPSPYCVRDSGRR, the amyloid nucleation score was -0.301 ± 0.65.

The substance GRVVAHLNRRHR returned an amyloid nucleation score of 1.38 ± 0.43.

For GSELCGVGARSQDSRIAGRV, the amyloid nucleation score is -0.282 ± 0.49.

The substance GSFHTQRTWAFVVVVEVHGK displayed an amyloid nucleation score of 0.232 ± 0.41.

GSGINVRDITFIL: the amyloid nucleation score is 4.42 ± 0.071.

In the case of GSHTGEFRYVF, the amyloid nucleation score is -0.83 ± 0.42.

For the substance GSLKEMEKHPWKKATTYQYA, the amyloid nucleation score was 1.47 ± 0.23.

Substance GSMQQNSFREMEPRDSTGGA displayed an amyloid nucleation score of -0.844 ± 0.94.

In the case of GSNIGQSFWYRRWVQQRTAE, the amyloid nucleation score is -1.13 ± 2.7.

GSNPVVSLW showed an amyloid nucleation score of 0.076 ± 0.44.

Substance GSQSEVVCGW came in with an amyloid nucleation score of 1.14 ± 0.74.

Regarding GSRSHRSH, the amyloid nucleation score turned out to be 0.751 ± 0.67.

In turn, GSSKNFH showed an amyloid nucleation score of 0.972 ± 0.43.

As for GSSLTPCFEWMIIRCVEEDG, the amyloid nucleation score was 1.05 ± 0.79.

Substance GSTSCK gave an amyloid nucleation score of 0.79 ± 0.43.

Take GSVAKRPVVKISRHPLCMVW: the amyloid nucleation score is 0.364 ± 0.24.

In turn, GSYECFHHLYCGWQSLLWAN registered an amyloid nucleation score of 0.854 ± 0.39.

GTHEVLCNDHPCVYRHILRC registered an amyloid nucleation score of -0.753 ± 0.3.

As to GTLNMIFRFGMHAIVSYFWG, the amyloid nucleation score is 0.024 ± 0.4.

Regarding GTLYWLHASV, the amyloid nucleation score came out at 0.617 ± 0.47.

GTSKTTGERDWLRPMTRDI: the amyloid nucleation score is -0.94 ± 2.7.

Turning to GTSSGLV, the amyloid nucleation score stood at 0.104 ± 1.1.

With GTSVN, the amyloid nucleation score worked out at 1.08 ± 0.17.

GTTHRDS registered an amyloid nucleation score of -0.263 ± 0.35.

GTVPNVRKYPCFLCSMRR displayed an amyloid nucleation score of -1.28 ± 1.4.

GTVYWIYGGINLSAVLSSRS registered an amyloid nucleation score of 3.44 ± 0.1.

GTWNF: the amyloid nucleation score was -0.023 ± 0.55.

In the case of GVAMCEEWRLMISE, the amyloid nucleation score turned out to be 0.185 ± 0.74.

On to GVASNYPNHLVLNSR, for which the amyloid nucleation score is -0.211 ± 0.34.

As to GVATPPLRANSLEG, the amyloid nucleation score result was “inactive”.

Substance GVDRVQCVFLSRVEWLGTPG came in with an amyloid nucleation score of 0.198 ± 0.67.

For the substance GVESLLCYASPLVSWAIFAD, the amyloid nucleation score was -0.424 ± 0.28.

Substance GVFEPCRVRSFMHIVSIADR showed an amyloid nucleation score of -0.306 ± 1.7.

GVGNTRQRVFRVVHCLAMLQ returned an amyloid nucleation score of 0.634 ± 0.88.

GVIYS yielded an amyloid nucleation score of 0.077 ± 0.28.

With GVLILCVSAKSRSAAVKQLS, the amyloid nucleation score is 0.755 ± 0.68.

GVLLGVTSFEFFMGTLEVAW showed an amyloid nucleation score of 0.188 ± 1.

GVMSTDPFLTLYTVLVGVLI: the amyloid nucleation score entry was “inactive”.

GVTSR came in with an amyloid nucleation score of 1.25 ± 0.72.

GWCNMGGANVWKMQVTGPAE displayed an amyloid nucleation score of 0.948 ± 0.58.

In the case of GWCYSDVVMLPF, the amyloid nucleation score was -0.141 ± 0.34.

For GWGLA, the amyloid nucleation score result is “inactive”.

Regarding GWMYVSMLFGVG, the amyloid nucleation score is -0.455 ± 1.7.

Turning to GWSIMVGQMASLLWCIRAGT, the amyloid nucleation score is 0.116 ± 0.3.

GYEVKMHYSVLIINNSCPCL: the amyloid nucleation score is 0.95 ± 0.25.

The substance GYFDMFTKIVVL yielded an amyloid nucleation score of 0.856 ± 0.45.

Take GYFYFRQIIQSDRPFIYNIP: the amyloid nucleation score was -0.16 ± 0.38.

The substance GYGSHNEAGKLGVGGEVCYG gave an amyloid nucleation score of 3.85 ± 0.065.

For the substance GYKGQCIIYSTVDSRN, the amyloid nucleation score came out at 0.07 ± 0.35.

In turn, GYKRFYLLVKLYVFERINIA came in with an amyloid nucleation score of -0.244 ± 0.31.

On to GYNNRRDFPLSMPCRH, for which the amyloid nucleation score was -0.363 ± 0.88.

In the case of GYNVAFILHTTVKCVCVEM, the amyloid nucleation score turned out to be 0.757 ± 0.41.

The substance GYPGCHLFVSWTTVGPVFFY had an amyloid nucleation score of 8.239 ± 0.047.

Turning to GYRCMHLWTRSPSFIRPVVS, the amyloid nucleation score amounted to 0.67 ± 0.97.

The substance GYRCSWNDPMVNTVFFV yielded an amyloid nucleation score of 0.98 ± 0.56.

Regarding GYSIDIP, the amyloid nucleation score entry is “inactive”.

The substance GYSYTCPLS returned an amyloid nucleation score of -0.217 ± 0.36.

In turn, GYWPNKRWSRMKPIYPHSNV yielded an amyloid nucleation score of 1.34 ± 0.18.

In turn, HAHVQCGESE had an amyloid nucleation score of 0.092 ± 0.73.

In turn, HALTSDRYWKERPTIPRFRF gave an amyloid nucleation score of -0.174 ± 0.36.

HAVQLRYLKKKWGWYALCKR registered an amyloid nucleation score of 0.712 ± 0.72.

Regarding HCILHKANFRGFTHSSYEVG, the amyloid nucleation score is 4.68 ± 0.1.

The substance HCIWKMLNLFSSLRLSIKLI registered an amyloid nucleation score of -2.16 ± 2.4.

Regarding HCLSNCSSRVGGFSFNAPVA, the amyloid nucleation score is 0.5 ± 0.45.

HCNIMIDSTSLFNGGLVFYN showed an amyloid nucleation score of 4.83 ± 0.059.

On to HCNSNVTWKV, for which the amyloid nucleation score came out at 0.414 ± 0.63.

Substance HCQVQHLTQFMWVIVMRTRD displayed an amyloid nucleation score of 3.5 ± 0.14.

Consider HCVRQTSWMLAENLAWEVWL, for which the amyloid nucleation score stood at 1.1 ± 0.58.

In turn, HCYRITYKRSNRDVL registered an amyloid nucleation score of 1.76 ± 0.36.

In turn, HDFRFIGSWHLTYGPSVTTT showed an amyloid nucleation score of -0.471 ± 0.49.

HDICTLWILSAL had an amyloid nucleation score of 0.602 ± 0.78.

Consider HDSNHFLRDLLVILRYYEAV, for which the amyloid nucleation score entry is “inactive”.

Take HEKVV: the amyloid nucleation score was 0.292 ± 0.32.

In the case of HFGWNLGPMHTMKSSV, the amyloid nucleation score was 0.464 ± 0.49.

In turn, HFICKLND gave an amyloid nucleation score of 0.354 ± 0.34.

In turn, HFKAYAFLDPFPLAPKL had an amyloid nucleation score of 0.463 ± 0.64.

HFMWAYRCSDYDLM showed an amyloid nucleation score of 2.01 ± 0.11.

HFQKYKELVVSKHN showed an amyloid nucleation score of 0.743 ± 1.1.

As for HFTIKF, the amyloid nucleation score amounted to 1.06 ± 0.27.

As for HFYSRYRTPQTRS, the amyloid nucleation score was -0.549 ± 0.64.

Substance HGALMNNWDLKACFC gave an amyloid nucleation score of -0.786 ± 0.41.

In turn, HGAMLSSM came in with an amyloid nucleation score of -2.06 ± 2.4.

For the substance HGFNPNWGSRVKGSMVRV, the amyloid nucleation score is -0.044 ± 0.47.

In turn, HGLNVTLDVHGESYLHIYVW gave an amyloid nucleation score of -0.036 ± 0.62.

HGNYTHQMTPAELFLRHMRF displayed an amyloid nucleation score of -0.991 ± 2.4.

For the substance HHRVCSMKWSNCYELNVMGE, the amyloid nucleation score was -0.429 ± 0.28.

For the substance HHSVGSYRINCLV, the amyloid nucleation score was 3.39 ± 0.089.

HHVAVSLDANLNFFTLWLER returned an amyloid nucleation score of 3.81 ± 0.12.

The substance HIFCRVIPLHMYKLADNW registered an amyloid nucleation score of 0.841 ± 0.8.

The substance HIQRYMWKGGLEFVLIVRRA had an amyloid nucleation score of 1.2 ± 0.4.

As to HIYNDSVRSFWIFQ, the amyloid nucleation score worked out at 6.606 ± 0.05.

With HIYSF, the amyloid nucleation score turned out to be 1.26 ± 0.12.

Consider HKHRKPSLNRVPGVGW, for which the amyloid nucleation score was -0.78 ± 0.43.

HKNLQIVTFFVEYVSETPPG: the amyloid nucleation score is -1.05 ± 1.

Turning to HLECFRLRLPFTNCDVYVRS, the amyloid nucleation score is 0.845 ± 0.54.

HLGSNFKISAGAINVRLSHR registered an amyloid nucleation score of 4.76 ± 0.1.

Consider HLHLGCWW, for which the amyloid nucleation score stood at 3.31 ± 0.14.

HLKGHFEGWGLIICVSSGFD returned an amyloid nucleation score of 2.08 ± 0.14.

In the case of HLLALFTSFVTITPW, the amyloid nucleation score was -0.986 ± 0.88.

Take HLSVMMGFGFRTFNMIVMVC: the amyloid nucleation score was 1.05 ± 0.26.

Substance HLWHSGPFVRMCCATFIFLA showed an amyloid nucleation score of 0.49 ± 0.75.

In the case of HLYTVTHGSLNDKTGRP, the amyloid nucleation score turned out to be 0.31 ± 0.97.

HMADTRVADCSQLLR came in with an amyloid nucleation score of 0.409 ± 0.81.

HMWYFRYGHEWSRTYNKCIK had an amyloid nucleation score of -0.02 ± 0.72.

For HNKCSFLYMSQYARHRMYSS, the amyloid nucleation score was found to be 0.218 ± 0.5.

With HNLLM, the amyloid nucleation score result was “inactive”.

As to HNSHRWYMGGTNVGVSCI, the amyloid nucleation score was determined as 0.456 ± 0.93.

The substance HNSRWTRFRHLCSYITYGGC yielded an amyloid nucleation score of -0.396 ± 0.58.

For HPHVMLGILGHN, the amyloid nucleation score worked out at 0.752 ± 0.85.
